Results as given in PMC4322367.

Tests used:
[1] = molecular target: Plk1 (UniProt P53350); assay: co-IP of FLAG-Ataxin-10 and HA-Plk1; conditions: reference: wild type; sites S12
[2] = molecular target: Plk1 (UniProt P53350); assay: GST pull-down of His-Plk1; conditions: reference: wild type; sites S12

- other: percent decrease vs wild type [2]: 20%
Substance: Ataxin-10 (from UniProt Q9UBB4) S12A
- other: percent decrease vs wild type [1]: 30%
